In patent publication US20110144007A1 (IPSEN PHARMA S A S, published 2011) one finds Ki data, which are given here for 36 molecules.

Positions count from the first letter of the chain named. Non-standard residues stand in square brackets, D forms with d. No end group written: not given here. *: point of attachment. Psu = N-propylsuccinimide on Cys S (Cys alkylated with N-propylmaleimide), CCCN1C(=O)CC(*)C1=O; Myristoyl = CCCCCCCCCCCCCC(=O)*; Ac6c = NC1(C(=O)O)CCCCC1; Nle = CCCC[C@H](N)C(=O)O; Orn = NCCC[C@H](N)C(=O)O; Ac5c = NC1(C(=O)O)CCCC1; Aib = CC(C)(N)C(=O)O

T1: human recombinant GIP receptor (human, UniProt P48546 22-466)
T1 construct: whole, on cells; Assayed as washed membrane preparations of CHO-K1 clonal cells expressing the receptor; also called hGIP receptor
T1 sequence (looked up): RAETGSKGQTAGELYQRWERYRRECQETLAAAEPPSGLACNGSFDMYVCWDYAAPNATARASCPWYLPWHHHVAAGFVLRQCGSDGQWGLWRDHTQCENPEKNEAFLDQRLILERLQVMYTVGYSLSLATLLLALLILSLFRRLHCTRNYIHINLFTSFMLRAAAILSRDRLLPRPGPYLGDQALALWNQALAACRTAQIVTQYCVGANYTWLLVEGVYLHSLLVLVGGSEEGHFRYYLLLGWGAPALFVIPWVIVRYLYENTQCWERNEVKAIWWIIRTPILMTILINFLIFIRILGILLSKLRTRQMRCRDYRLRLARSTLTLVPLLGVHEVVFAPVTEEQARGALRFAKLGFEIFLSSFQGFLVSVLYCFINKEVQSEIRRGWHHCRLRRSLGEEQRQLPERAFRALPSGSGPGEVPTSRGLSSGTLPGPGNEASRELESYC

B1: (A6c^11, 14, 41)hGIP(1-42)-OH (peptide)
peptide: YAEGTFISDYXIAXDKIHQQDFVNWLLAQKGKKNDWKHNIXQ
modifications: A6c (1-amino-1-cyclohexanecarboxylic acid) at 11, 14 and 41; C-terminal free acid
notes: Synthetic analogue of human GIP
B2: [A5c^11,41, Cys^32(succinimide-N-20K PEG)]hGIP(1-42)-NH2 (peptide)
peptide: B1 peptide with X14M, K32C
modifications: A5c at 11 and 41; Cys(succinimide-N-20K PEG) at 32; C-terminal amide
notes: Synthetic PEGylated analogue of human GIP
B3: (A5c^11, 41, Cys^32)hGIP(1-42)-NH2 (peptide)
peptide: B1 peptide with X14M, K32C
modifications: A5c at 11 and 41; C-terminal amide
notes: Synthetic analogue of human GIP with Cys at position 32
B4: (A5c^11, 41, Cys^33)hGIP(1-42)-NH2 (peptide)
peptide: B1 peptide with X14M, K33C
modifications: A5c at 11 and 41; C-terminal amide
notes: Synthetic analogue of human GIP with Cys at position 33
B5: [A5c^11, Lys^43(N-C(O)-(CH2)10-CH3)]hGIP(1-43)-OH (peptide)
peptide: YAEGTFISDYXIAMDKIHQQDFVNWLLAQKGKKNDWKHNITQK
modifications: A5c at 11; Lys(N-C(O)-(CH2)10-CH3) at 43; C-terminal free acid
notes: Synthetic acylated analogue of human GIP
B6: [A5c^11, Lys^43(N-C(O)-(CH2)14-CH3)]hGIP(1-43)-OH (peptide)
peptide: B5 peptide
modifications: A5c at 11; Lys(N-C(O)-(CH2)14-CH3) at 43; C-terminal free acid
notes: as for B5
B7: [A5c^11, Orn^32(N-C(O)-(CH2)10-CH3), His^43]hGIP(1-43)-OH (peptide)
peptide: B5 peptide with K32X, K43H
modifications: A5c at 11; Orn(N-C(O)-(CH2)10-CH3) at 32; C-terminal free acid
notes: Synthetic acylated analogue of human GIP with an added His at position 43
B8: (A5c^11, 14, His^43)hGIP(1-43)-OH (peptide)
peptide: B5 peptide with M14X, K43H
modifications: A5c at 11 and 14; C-terminal free acid
notes: Synthetic analogue of human GIP with an added His at position 43
B9: (A5c^11, Nle^14, His^43)hGIP(1-43)-OH (peptide)
peptide: B5 peptide with M14X, K43H
modifications: A5c at 11; Nle at 14; C-terminal free acid
notes: as for B8
B10: (Aib^13, Asp^43)hGIP(1-43)-NH2 (peptide)
peptide: B5 peptide with X11S, A13X, K43D
modifications: Aib (alpha-aminoisobutyric acid) at 13; C-terminal amide
notes: Synthetic analogue of human GIP with an added Asp at position 43
B11: (A5c^11, 41, Cys^43)hGIP(1-43)-NH2 (peptide)
peptide: B5 peptide with T41X, K43C
modifications: A5c at 11 and 41; C-terminal amide
notes: Synthetic analogue of human GIP with an added Cys at position 43
B12: [A5c^11,41, Cys^43(succinimide-N-20K PEG)]hGIP(1-43)-NH2 (peptide)
peptide: B5 peptide with T41X, K43C
modifications: A5c at 11 and 41; Cys(succinimide-N-20K PEG) at 43; C-terminal amide
notes: as for B2
B13: [A5c^11, Orn^33(N-C(O)-(CH2)14-CH3), His^43]hGIP(1-43)-OH (peptide)
peptide: B5 peptide with K33X, K43H
modifications: A5c at 11; Orn(N-C(O)-(CH2)14-CH3) at 33; C-terminal free acid
notes: as for B5
B14: [A5c^11, Orn^32(N-C(O)-(CH2)14-CH3), His^43]hGIP(1-43)-OH (peptide)
peptide: B5 peptide with K32X, K43H
modifications: A5c at 11; Orn(N-C(O)-(CH2)14-CH3) at 32; C-terminal free acid
notes: as for B5
B15: [A5c^11,41, Cys^43(succinimide-N-30K PEG)]hGIP(1-43)-NH2 (peptide)
peptide: B5 peptide with T41X, K43C
modifications: A5c at 11 and 41; Cys(succinimide-N-30K PEG) at 43; C-terminal amide
notes: as for B2
B16: [A5c^11, Orn^33(N-C(O)-(CH2)10-CH3), His^43]hGIP(1-43)-OH (peptide)
peptide: B5 peptide with K33X, K43H
modifications: A5c at 11; Orn(N-C(O)-(CH2)10-CH3) at 33; C-terminal free acid
notes: as for B7
B17: (A5c^11, Ala^43)hGIP(1-43)-OH (peptide)
peptide: B5 peptide with K43A
modifications: A5c at 11; C-terminal free acid
notes: Synthetic analogue of human GIP with an added Ala at position 43
B18: (A5c^11, His^43)hGIP(1-43)-OH (peptide)
peptide: B5 peptide with K43H
modifications: A5c at 11; C-terminal free acid
notes: as for B8
B19: (A5c^11, Asn^43)hGIP(1-43)-OH (peptide)
peptide: B5 peptide with K43N
modifications: A5c at 11; C-terminal free acid
notes: Synthetic analogue of human GIP with an added Asn at position 43
B20: (A5c^11, Thr^43)hGIP(1-43)-OH (peptide)
peptide: B5 peptide with K43T
modifications: A5c at 11; C-terminal free acid
notes: Synthetic analogue of human GIP with an added Thr at position 43
B21: (Aib^13, Trp^43)hGIP(1-43)-OH (peptide)
peptide: B5 peptide with X11S, A13X, K43W
modifications: Aib at 13; C-terminal free acid
notes: Synthetic analogue of human GIP with an added Trp at position 43
B22: (A5c^11)hGIP(1-30)-NH2 (peptide)
peptide: YAEGTFISDYXIAMDKIHQQDFVNWLLAQK
modifications: A5c at 11; C-terminal amide
notes: Synthetic truncated analogue of human GIP
B23: (A5c^11, His^31)hGIP(1-31)-NH2 (peptide)
peptide: YAEGTFISDYXIAMDKIHQQDFVNWLLAQKH
modifications: A5c at 11; C-terminal amide
notes: Synthetic truncated analogue of human GIP with His at position 31
B24: (Aib^13, Nle^14, Phe^43)hGIP(1-43)-OH (peptide)
peptide: YAEGTFISDYSI[Aib][Nle]DKIHQQDFVNWLLAQKGKKNDWKHNITQF-OH
notes: Synthetic analogue of human GIP with an added Phe at position 43
B25: (A5c^11, 14)hGIP(1-30)-NH2 (peptide)
peptide: B22 peptide with M14X
modifications: A5c at 11 and 14; C-terminal amide
notes: as for B22

In the assay the target is T1, human recombinant GIP receptor. Kind of assay: displacement of [125I]GIP from membranes of CHO-K1 cells expressing human recombinant GIP receptor. Background: Displacement assays read how much labelled ligand stays bound in the presence of the test substance.
A word on the Ki: it is a measure of affinity in units of concentration, obtained from inhibition or displacement. YAEGTF[Ac6c]SDYSIAMDKIHQQDFVNWLLAQKGKKNDWKHNITC(Psu)-OH (Synthetic analogue of human GIP) [[A6c^7, Cys(Psu)^42]hGIP(1-42)-OH]: the inhibition constant Ki stood at 30.4 nM.
The figure for B1 is 4.72 nM; for YAEGTFISDYXIAMDKIHQQDFVNWLLAQKGKKNDWKHNXTQ (A5c at 11 and 40; C-terminal free acid, Synthetic analogue of human GIP) [(A5c^11, 40)hGIP(1-42)-OH] it is 0.62 nM.
For YAEGTFISDYSIXMDKIHQQDFVNWLLAQKGKKNDWKHNXTQ (Aib at 13; A5c at 40; C-terminal free acid, Synthetic analogue of human GIP) [(Aib^13, A5c^40)hGIP(1-42)-OH], the Ki amounted to 5.74 nM.
Consider YAEGTFISDYXIAMDKIHQQDFVNWLLAQKGKKNDWKHNIXQ (A5c (1-amino-1-cyclopentanecarboxylic acid) at 11 and 41; C-terminal free acid, Synthetic analogue of human GIP) [(A5c^11, 41)hGIP(1-42)-OH], for which the inhibition constant Ki worked out at 0.12 nM.
With YAEGTFISDYXIAXDKIHQQDFVNWLLAQKGKKNDWKHNXTQ (A6c at 11, 14 and 40; C-terminal free acid, Synthetic analogue of human GIP) [(A6c^11, 14, 40)hGIP(1-42)-OH], the Ki is 1.3 nM.
In the case of B2, the Ki is 0.7 nM.
To B3 belongs 0.9 nM; to B4, 1.05 nM.
To YAEGTF[Ac6c]SDYSIAMDKIHQQDFVNWLLAQKGKKNDWKHNI[Ac6c]Q-OH (Synthetic analogue of human GIP) [(A6c^7, 41)hGIP(1-42)-OH] belongs 8.79 nM; to YAEGTF[Ac6c]SDYSIAMDKIHQQDFVNWLLAQKGKKN[Orn](Myristoyl)WKHNITQ-OH (Synthetic analogue of human GIP) [[A6c^7, Orn^35(N-C(O)-(CH2)12-CH3)]hGIP(1-42)-OH], 10.3 nM.
Regarding YAEGTF[Ac6c]SDYSIAMDKIHQQDFVNWLLAQK[Orn](Myristoyl)KKNDWKHNITQ-OH (Synthetic analogue of human GIP) [[A6c^7, Orn^31(N-C(O)-(CH2)12-CH3)]hGIP(1-42)-OH], the Ki is 18.1 nM.
To B5 belongs 0.83 nM.
B6: the Ki was found to be 1.25 nM.
To B7 belongs 5.3 nM; to YAEGTFISDYXIAMDKIHQQDFVNWLLAQKGKKNDWKHNITQX (A5c at 11; Ado (12-aminododecanoic acid) at 43; C-terminal free acid, Synthetic analogue of human GIP) [(A5c^11, Ado^43)hGIP(1-43)-OH], 31.6 nM.
To B8 belongs 0.59 nM; to B9, 0.72 nM; to B10, 0.6 nM.
To B11 belongs 0.51 nM; to B12, 0.7 nM.
With B13, the Ki came out at 26.4 nM.
On to B14, for which the Ki came out at 41.6 nM.
As to B15, the Ki came out at 0.69 nM.
To B16 belongs 9.1 nM; to B17, 3.43 nM; to B18, 0.54 nM.
On to B19, for which the Ki was determined as 0.21 nM.
The figure for B20 is 3.13 nM; for B21 it is 2.76 nM; for YAEGTF[Ac6c]SDYSIA[Nle]DKIHQQDFVNWLLAQKGKKNDWKHNI[Ac6c]Q-OH (Synthetic analogue of human GIP) [(A6c^7, 41, Nle^14)hGIP(1-42)-OH] it is 26.1 nM.
As for B22, the Ki is 0.82 nM.
To B23 belongs 0.44 nM; to B24, 3.15 nM.
The figure for YAEGTFISDYSI[Aib][Nle]DKIHQQDFVNWLLAQKGKKNDWKHN[Ac5c]TQ-OH (Synthetic analogue of human GIP) [(Aib^13, Nle^14, A5c^40)hGIP(1-42)-OH] is 0.23 nM; for B25 it is 0.78 nM.
